Values quoted from earlier work, collected in publication PMC8241641 (European Journal of Nuclear Medicine and Molecular Imaging, 2021).

Design: method as in PMID 28864620

In the case of [^177Lu]Lu-DOTA-TATE, the “Dose to the bone marrow typically calculated” value is listed as 0.03–0.07 Gy/GBq.
